“And” between values parts separate entries of the source, which are not always exact repeats. Equal values may be shown once.
B1: 2130 dFab, DNA-encoded Fab obtained from serum-derived DMAb 2130 TM(m3) (Fab, V domains shown)
VH: EVQLVESGGGLVKPGGSLRLSCAASGFTFRDVWMSWVRQAPGKGLEWVGRIKSKIDGGTTDYAAPVKGRFTISRDDSKNTLYLQMNSLKTEDTAVYYCTTAGSYYYDTVGPGLPEGKFDYWGQGTLVTVSS
VL: not shown
notes: also called dFab 2130
B2: 2196 dFab, DNA-encoded Fab obtained from serum-derived DMAb 2196 TM(m3) (Fab, V domains shown)
VH: QMQLVQSGPEVKKPGTSVKVSCKASGFTFMSSAVQWVRQARGQRLEWIGWIVIGSGNTNYAQKFQERVTITRDMSTSTAYMELSSLRSEDTAVYYCAAPYCSSISCNDGFDIWGQGTMVTVSS
VL: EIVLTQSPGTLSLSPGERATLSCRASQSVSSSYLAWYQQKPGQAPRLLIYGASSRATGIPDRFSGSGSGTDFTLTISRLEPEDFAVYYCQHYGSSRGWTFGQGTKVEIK
notes: also called dFab 2196; 2196DMAb Fab

Molecular target: T1, SARS-CoV-2 6P spike ectodomain peplomer (USA-WA1/2020; 6P stabilization) (SARS-CoV-2 USA-WA1/2020 (MN985325), stabilised)
T1 construct: also called stabilized spike trimer; spike peplomer
Assay: cryo-EM structure
Conditions: both partners purified

Row | Binder | stoichiometry N
1 | B1 | 3 dFabs per spike trimer
2 | B2 | 1 dFab per spike trimer and 2 dFabs per spike trimer and 1 copy per RBD (all three RBDs)

Reference: PMC9537531, “DNA-delivered antibody cocktail exhibits improved pharmacokinetics and confers prophylactic protection against SARS-CoV-2” (Nature Communications, 2022)
